According to patent US9518103B2, “Optogenetic probes for measuring membrane potential” (President and Fellows of Harvard College, priority 2014, dated 2016):
Like-named read-outs stand apart in the source and are kept apart here.

Assays:
[1] = Quantum yield of solubilized protein (Cy5 reference); assay type: physicochemical; conditions: excitation at 600 nm
Protocol: Solubilization and spectroscopic characterization of QuasAr1 and QuasAr: E. coli expressing QuasAr1 and QuasAr2 were grown in 12 mL LB medium with 200 μg/ml ampicillin overnight. The next day, 12 mL of liquid LB medium containing 50 μM retinal, 200 μg/ml ampicillin and 0.1% arabinose was added into the overnight culture, followed by additional incubation at 37° C. for 4 hours. The cell pellets were collected by centrifugation and lysed by suspension in B-PER solution (Pierce). The cytoplasmic fraction was discarded after centrifugation and the colored insoluble fraction was resuspended in phosphate buffered saline (PBS) containing 1.5% n-dodecyl-β-D-maltopyranoside (Affymetrix, Inc.). The suspension was homogenized by an ultrasonic homogenizer and centrifuged (17,000 g for 15 mins, 4° C.). The solubilized protein in the supernatant was used for in vitro spectroscopic characterization.
Absorption spectra were recorded on a DU-800 UV-visible spectrophotometer (Beckman) and fluorescence spectra were recorded on a Safire2 plate reader (Tecan). Cy5 carboxylic acid (Cyandye) was used as the reference for quantum yield measurement. Quantum yield measurements were performed on a series of dilutions of each protein solution and standard, with absorbance values ranging from 0.01 to 0.05 at 600 nm. The fluorescence emission spectra of each dilution were recorded with excitation at 600 nm and the total fluorescence intensities obtained by integration. Integrated fluorescence intensity vs. absorbance was plotted for each protein and each standard. Quantum yields, Φ, were determined from the slopes (S) of each line using the equation: Φprotein=Φstandard×(Sprotein/Sstandard).

HEK293T cells = assay: Simultaneous whole-cell patch clamp electrophysiology and fluorescence in HEK cells (brightness, voltage sensitivity, speed); assay type: cell-based; conditions: for voltage sensitivity (ΔF/F per 100 mV): HEK cells
Protocol: Simultaneous electrophysiology and fluorescence in HEK cells: HEK293T cells (ATCC CRL-11268) were cultured and transfected following standard protocols.^10 Briefly, HEK-293 cells were grown at 37° C., 5% CO2, in DMEM supplemented with 10% FBS and penicillin-streptomycin. Plasmids were transfected using Transit 293T (Mirus) following the manufacturer's instructions, and assayed 48 hours later. The day before recording, cells were re-plated onto glass-bottom dishes (MatTek) at a density of ˜10,000 cells/cm^2.
Cells were supplemented with retinal by diluting stock retinal solutions (40 mM, DMSO) in growth medium to a final concentration of 5 μM, and then returning the cells to the incubator for 0.5-1 hour. All imaging and electrophysiology were performed in Tyrode buffer (containing, in mM: 125 NaCl, 2.5 KCl, 3 CaCl2, 1 MgCl2, 10 HEPES, 30 glucose pH 7.3, and adjusted to 305-310 mOsm with sucrose). A gap junction blocker, 2-aminoethoxydiphenyl borate (50 μM, Sigma), was added to eliminate electrical coupling between cells.
Filamented glass micropipettes (WPI) were pulled to a tip resistance of 5-10 MΩ, and filled with internal solution containing 125 mM potassium gluconate, 8 mM NaCl, 0.6 mM MgCl2, 0.1 mM CaCl2, 1 mM EGTA, 10 mM HEPES, 4 mM Mg-ATP, 0.4 mM Na-GTP (pH 7.3); adjusted to 295 mOsm with sucrose. Pipettes were positioned with a Sutter MP285 manipulator. Whole-cell, voltage and current clamp recordings were acquired using an […] 700B amplifier (Molecular Devices), filtered at 2 kHz with the internal Bessel filter and digitized with a National Instruments PCIE-6323 acquisition board at 5-10 kHz. Data was only acquired from HEK cells having reversal potentials between −10 and −40 mV, access resistance<25 MΩ and membrane resistance>0.5 GΩ.
Simultaneous whole-cell patch clamp recordings and fluorescence recordings were acquired on a home-built, inverted epifluorescence microscope, described previously^10 and described below in “Apparatus”. For step response measurements, voltage clamp electronics were compensated 90-95%. We examined variants of QuasAr1 with mutations at position 95 (Asn, Cys, Gin, His and Tyr) and position 106 (Arg, Asp, Asn, Cys, Glu, His, Lys and Tyr). These experiments confirmed that histidine at position 106 provided undetectable photocurrent, and the best combination of improved voltage sensitivity, and fast kinetics.
We compared the fluorescence, voltage sensitivity, and speed of the QuasArs to wild-type Arch in HEK cells, using epifluorescence microscopy and whole-cell patch clamp electrophysiology. Under low intensity illumination (640 nm, 500 mW/cm^2), QuasAr1 was 15-fold brighter than wild-type Arch, and QuasAr2 was 3.3-fold brighter (FIG. 1B; Methods).

[2] = earlier work, cited from earlier work
[3] = tested on: cultured rat hippocampal neurons; assay: Photocurrent in cultured rat hippocampal neurons; assay type: cell-based
Protocol: FIGS. 4A-4B show the photophysics of QuasArs in mammalian cells. […] Steady state photocurrents were calculated by averaging the current over the last 0.25 seconds of light exposure and subtracting the holding current (cells held at −65 mV) in the dark. These currents hyperpolarized cells by 25±4 mV and 19±3 mV, respectively. […] The double mutants had mutations at the locations of the proton acceptor (Asp95) and proton donor (Asp106) to the Schiff base. QuasAr1 includes mutations D95H, D106H, and QuasAr2 includes mutations D95Q, D106H. The three additional backbone mutations in the QuasArs (P60S, T80S, F161V) increased brightness relative to the double mutants, Fluorescence of each Arch mutant was measured with excitation at 640 nm and emission from 660-760 nm. To control for variation in expression level, fluorescence was normalized by eGFP fluorescence (λexc=488 nm, λem=510−550 nm). Error bars represent s.e.m. for measurements on n=5-10 cells.
Measurements were performed on primary cultures at 13-15 DIV. Experiments were conducted in Tyrode's solution containing 125 mM NaCl, 2.5 mM KCl, 3 mM CaCl2, 1 mM MgCl2, 10 mM HEPES, 30 mM glucose (pH 7.3) and adjusted to 305-310 mOsm with sucrose. Prior to imaging, neurons were incubated with 5 μM all-trans retinal for 30 minutes and then washed with Tyrode's solution.
Synaptic blockers were added to the imaging medium for measurements of single-cell electrophysiology (Arch photocurrents, and single-cell excitability). The blockers comprised NBQX (10 μM, Tocris), D(−)-2-amino-5-phosphonovaleric acid (APS; […]), and gabazine (SR-95531, 20 μM, Tocris). For measurements of channel rhodopsin photocurrents in neurons, TTX (1 μM, Tocris) was included along with the synaptic blockers to prevent recruitment of voltage gated sodium channels. […] Recordings were terminated if membrane resistance changed by >10%. Experiments were performed at 23° C. under ambient atmosphere unless otherwise noted.

[4] = blue illumination (488 nm, 500 mW/cm^2)
[5] = red illumination (640 nm, 300 W/cm^2)

Molecule | Quantum yield [1] | Quantum yield relative to Arch D95N [1] | voltage sensitivity (ΔF/F per 100 mV) (HEK293T cells) | step response / response time [2] | voltage sensitivity compared with QuasAr2 (HEK293T cells) | further results
Arch D95N: Archaerhodopsin 3 D95N mutant, non-pumping voltage indicator of US 2013/0224756 (protein) MDPIALQAGYDLLGDGRPETLWLGIGTLLMLIGTFYFLVRGWGVTDKDAREYYAVTILVPGIASAAYLSMFFGIGLTEVTVGGEMLDIYYARYANWLFTTPLLLLDLALLAKVDRVTIGTLVGVDALMIVTGLIGALSHTAIARYSWWLFSTICMIVVLYFLATSLRSAAKERGPEVASTFNTLTALVLVLWTAYPILWIIGTEGAGVVGLGIETLLFMVLDVTAKVGFGFILLRSRAILGDTEAPEPSAGADVSAAD | 4 × 10^−4 | 1 | 60% | 41 ms | – | step response / response time ([2]; listed as Arch 3 D95N): 40 ms
Arch D95H/D106H: Arch double mutant D95H, D106H (protein) MDPIALQAGYDLLGDGRPETLWLGIGTLLMLIGTFYFLVRGWGVTDKDAREYYAVTILVPGIASAAYLSMFFGIGLTEVTVGGEMLDIYYARYAHWLFTTPLLLLHLALLAKVDRVTIGTLVGVDALMIVTGLIGALSHTAIARYSWWLFSTICMIVVLYFLATSLRSAAKERGPEVASTFNTLTALVLVLWTAYPILWIIGTEGAGVVGLGIETLLFMVLDVTAKVGFGFILLRSRAILGDTEAPEPSAGADVSAAD | 2 × 10^−3 | 4.2 | – | – | three-fold less than the sensitivity of QuasAr2 | –
Arch(WT): wild-type Archaerhodopsin 3, light-driven proton pump from Halobacterium sodomense (protein, Halobacterium sodomense, wild-type Archaerhodopsin 3, light-driven proton pump from Halobacterium sodomense) MDPIALQAGYDLLGDGRPETLWLGIGTLLMLIGTFYFLVRGWGVTDKDAREYYAVTILVPGIASAAYLSMFFGIGLTEVTVGGEMLDIYYARYADWLFTTPLLLLDLALLAKVDRVTIGTLVGVDALMIVTGLIGALSHTAIARYSWWLFSTICMIVVLYFLATSLRSAAKERGPEVASTFNTLTALVLVLWTAYPILWIIGTEGAGVVGLGIETLLFMVLDVTAKVGFGFILLRSRAILGDTEAPEPSAGADVSAAD | *Due to the low light intensities used to determine QYs, fluorescence from Arch was not detected above baseline. | – | 40% | 0.6 ms | three-fold less than the sensitivity of QuasAr2 | hyperpolarization of cells by photocurrent [3, 4]: 19±3 mV; photocurrent [3, 4]: 140±25 pA; hyperpolarization of cells by photocurrent [3, 5]: 25±4 mV; photocurrent [3, 5]: 220±30 pA; τdown (+30 mV to −70 mV) % τ1 (HEK293T cells; 23° C.): 67%; τdown (+30 mV to −70 mV) τ1 (HEK293T cells; 23° C.): 0.25 ms; τdown (+30 mV to −70 mV) τ2 (HEK293T cells; 23° C.): 1.9 ms; τup (−70 mV to +30 mV) τ1 (HEK293T cells; 23° C.): 0.6 ms; Brightness (λexc = 640 nm) 0.7 W/cm^2 (HEK293T cells; 23° C., HEK293 cells): 1; Brightness (λexc = 640 nm) 800 W/cm^2 (HEK293T cells; 23° C., HEK293 cells): 4.0; Sensitivity (ΔF/F per 100 mV) (HEK293T cells; 23° C., HEK293 cells): 40%
Arch D95H/D106H/P60S: Arch triple mutant D95H, D106H, P60S (protein) MDPIALQAGYDLLGDGRPETLWLGIGTLLMLIGTFYFLVRGWGVTDKDAREYYAVTILVSGIASAAYLSMFFGIGLTEVTVGGEMLDIYYARYAHWLFTTPLLLLHLALLAKVDRVTIGTLVGVDALMIVTGLIGALSHTAIARYSWWLFSTICMIVVLYFLATSLRSAAKERGPEVASTFNTLTALVLVLWTAYPILWIIGTEGAGVVGLGIETLLFMVLDVTAKVGFGFILLRSRAILGDTEAPEPSAGADVSAAD | 5 × 10^−3 | 12 | – | – | – | –
Arch D95H/D106H/F161V: Arch triple mutant D95H, D106H, F161V (protein) MDPIALQAGYDLLGDGRPETLWLGIGTLLMLIGTFYFLVRGWGVTDKDAREYYAVTILVPGIASAAYLSMFFGIGLTEVTVGGEMLDIYYARYAHWLFTTPLLLLHLALLAKVDRVTIGTLVGVDALMIVTGLIGALSHTAIARYSWWLFSTICMIVVLYVLATSLRSAAKERGPEVASTFNTLTALVLVLWTAYPILWIIGTEGAGVVGLGIETLLFMVLDVTAKVGFGFILLRSRAILGDTEAPEPSAGADVSAAD | 5 × 10^−3 | 13 | – | – | – | –
